This passage reports other: Folds of Co-IP results from article PMC9854190.

The assay concerns the target HA-Akt, P31749. The assay is described as follows: co-immunoprecipitation (FLAG beads), HA-Akt band quantified. The settings on record: chain shown with the change, HEK-293 cells expressing D3R, n = 3, read off a plot.

Chain of HA-Akt, P31749 (P31749 whole entry): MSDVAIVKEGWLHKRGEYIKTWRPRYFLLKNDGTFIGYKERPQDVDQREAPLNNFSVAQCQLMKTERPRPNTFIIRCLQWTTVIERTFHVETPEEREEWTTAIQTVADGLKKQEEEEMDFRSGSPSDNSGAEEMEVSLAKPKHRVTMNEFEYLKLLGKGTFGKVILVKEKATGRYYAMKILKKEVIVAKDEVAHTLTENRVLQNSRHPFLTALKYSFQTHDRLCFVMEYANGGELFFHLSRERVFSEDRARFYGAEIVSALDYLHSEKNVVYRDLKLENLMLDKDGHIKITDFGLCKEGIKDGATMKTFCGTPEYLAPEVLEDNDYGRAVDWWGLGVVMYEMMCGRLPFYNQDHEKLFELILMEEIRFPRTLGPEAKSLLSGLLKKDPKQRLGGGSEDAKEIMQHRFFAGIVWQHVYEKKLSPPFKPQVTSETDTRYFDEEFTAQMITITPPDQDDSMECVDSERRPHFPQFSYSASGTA

B1: FLAG-USP33, Q8TEY7-2 T154A (protein)
chain: MSAFRNHCPHLDSVGEITKEDLIQKSLGTCQDCKVQGPNLWACLENRCSYVGCGESQVDHSTIHSQETKHYLTVNLTTLRVWCYACSKEVFLDRKLGTQPSLPHVRQPHQIQENSVQDFKIPSNTTLKTPLVAVFDDLDIEADEEDELRARGLAGLKNIGNTCYMNAALQALSNCPPLTQFFLDCGGLARTDKKPAICKSYLKLMTELWHKSRPGSVVPTTLFQGIKTVNPTFRGYSQQDAQEFLRCLMDLLHEELKEQVMEVEEDPQTITTEETMEEDKSQSDVDFQSCESCSNSDRAENENGSRCFSEDNNETTMLIQDDENNSEMSKDWQKEKMCNKINKVNSEGEFDKDRDSISETVDLNNQETVKVQIHSRASEYITDVHSNDLSTPQILPSNEGVNPRLSASPPKSGNLWPGLAPPHKKAQSASPKRKKQHKKYRSVISDIFDGTIISSVQCLTCDRVSVTLETFQDLSLPIPGKEDLAKLHSSSHPTSIVKAGSCGEAYAPQGWIAFFMEYVKRFVVSCVPSWFWGPVVTLQDCLAAFFARDELKGDNMYSCEKCKKLRNGVKFCKVQNFPEILCIHLKRFRHELMFSTKISTHVSFPLEGLDLQPFLAKDSPAQIVTYDLLSVICHHGTASSGHYIAYCRNNLNNLWYEFDDQSVTEVSESTVQNAEAYVLFYRKSSEEAQKERRRISNLLNIMEPSLLQFYISRQWLNKFKTFAEPGPISNNDFLCIHGGVPPRKAGYIEDLVLMLPQNIWDNLYSRYGGGPAVNHLYICHTCQIEAEKIEKRRKTELEIFIRLNRAFQKEDSPATFYCISMQWFREWESFVKGKDGDPPGPIDNTKIAVTKCGNVMLRQGADSGQISEETWNFLQSIYGGGPEVILRPPVVHVDPDILQAEEKIEVETRSL
Consider B1, for which the other: Folds of Co-IP runs as follows: (Quin +, parent: est. 0.97) 0.74 fold; (Quin w/+ (desensitization condition), parent: est. 1.7) 0.86 fold; (Veh (Quin -), parent: est. 0.97) 0.9 fold.
